For five substances, response, A450 and Kd results are on record in publication PMC4148842.

pKd: −log10 of the molar value.

One assay deals with peptide II-44A. The assay can be described thus: solid-phase binding assay (SPBA). The settings on record: read off a plot.
The target in the next assay is peptide II-44B. Briefly: solid-phase binding assay (SPBA). As to conditions: read off a plot.
A further assay has as its target peptide II-44C. Briefly: solid-phase binding assay (SPBA). The settings on record: read off a plot.
Another assay deals with peptide II-44E. Briefly: solid-phase binding assay (SPBA). The settings on record: read off a plot.
For another assay, the target named is peptide II-44F. The assay can be described thus: solid-phase binding assay (SPBA). As to conditions: read off a plot.
The next assay concerns the target peptide II-44G. The assay can be described thus: solid-phase binding assay (SPBA). As to conditions: parent: est. 0.10; read off a plot.
A further assay has as its target peptide II-44I. Briefly: solid-phase binding assay (SPBA). The settings on record: read off a plot.
Assay [1] concerns the target peptide II-44J. Briefly: ELISA; SPBA on truncated and Ala-substituted II-44 variant peptides, carried out as for Fig. 1 (Fig. 4). Background: In an ELISA, binding on a coated surface is turned into a signal by an enzyme label.
Another assay deals with Toolkit peptide II-44. Briefly: ELISA; solid-phase binding assay (SPBA), Fig. 1: Toolkit II peptides, fibrillar type I collagen or GPP10 coated at 10 μg/ml on Immulon 2 HB wells; MMP preparation or Hpx at 83 nM in TBS with 1 mg/ml BSA and 0.1% Tween-20, 1 h at 24 °C; detected with an antibody to the MMP-13 hinge region (Hpx: anti-GST), A450.
Assay [2] addresses Fibrous bovine type I collagen (bovine) (UniProt P02453). The assay can be described thus: ELISA; SPBA, increasing concentrations of MMP-13 or MMP-13(E204A) on wells coated with fibrillar or monomeric type I collagen (10 μg/ml); KD from fitted curves (Fig. 3).
The target of assay [3] is Monomeric collagen (type I) (UniProt P02453). The assay is described as above.
Monomeric collagen (type I), sequence (P02453 162-1217, chain 1 of 2): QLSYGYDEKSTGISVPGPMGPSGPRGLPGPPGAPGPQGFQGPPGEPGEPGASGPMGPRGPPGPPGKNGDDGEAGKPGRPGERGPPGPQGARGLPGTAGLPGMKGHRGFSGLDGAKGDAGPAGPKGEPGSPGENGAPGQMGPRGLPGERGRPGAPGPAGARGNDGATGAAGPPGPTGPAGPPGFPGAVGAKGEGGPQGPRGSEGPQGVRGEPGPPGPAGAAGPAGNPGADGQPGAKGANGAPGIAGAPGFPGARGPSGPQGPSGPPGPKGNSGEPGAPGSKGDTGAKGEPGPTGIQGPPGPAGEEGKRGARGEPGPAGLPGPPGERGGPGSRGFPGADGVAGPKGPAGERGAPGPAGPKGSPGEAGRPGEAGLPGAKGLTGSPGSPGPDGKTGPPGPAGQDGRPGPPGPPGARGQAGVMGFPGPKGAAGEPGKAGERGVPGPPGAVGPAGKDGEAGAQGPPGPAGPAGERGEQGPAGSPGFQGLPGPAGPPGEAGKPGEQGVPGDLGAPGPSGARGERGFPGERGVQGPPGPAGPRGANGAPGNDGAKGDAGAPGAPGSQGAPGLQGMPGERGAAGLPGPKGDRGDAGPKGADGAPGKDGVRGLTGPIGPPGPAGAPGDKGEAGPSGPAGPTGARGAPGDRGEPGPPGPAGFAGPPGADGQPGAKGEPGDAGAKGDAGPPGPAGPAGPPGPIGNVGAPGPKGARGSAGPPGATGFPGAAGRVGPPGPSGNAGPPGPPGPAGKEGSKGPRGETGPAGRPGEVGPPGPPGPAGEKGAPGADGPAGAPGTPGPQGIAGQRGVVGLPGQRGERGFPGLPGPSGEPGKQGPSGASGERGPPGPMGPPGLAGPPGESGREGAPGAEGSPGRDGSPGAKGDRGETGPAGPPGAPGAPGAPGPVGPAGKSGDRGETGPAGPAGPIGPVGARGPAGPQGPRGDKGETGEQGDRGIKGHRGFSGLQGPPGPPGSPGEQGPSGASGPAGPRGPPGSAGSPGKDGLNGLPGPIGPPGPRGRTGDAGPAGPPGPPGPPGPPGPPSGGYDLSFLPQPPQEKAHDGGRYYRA
Monomeric collagen (type I), sequence (P02465 80-1117, chain 2 of 2, further chain): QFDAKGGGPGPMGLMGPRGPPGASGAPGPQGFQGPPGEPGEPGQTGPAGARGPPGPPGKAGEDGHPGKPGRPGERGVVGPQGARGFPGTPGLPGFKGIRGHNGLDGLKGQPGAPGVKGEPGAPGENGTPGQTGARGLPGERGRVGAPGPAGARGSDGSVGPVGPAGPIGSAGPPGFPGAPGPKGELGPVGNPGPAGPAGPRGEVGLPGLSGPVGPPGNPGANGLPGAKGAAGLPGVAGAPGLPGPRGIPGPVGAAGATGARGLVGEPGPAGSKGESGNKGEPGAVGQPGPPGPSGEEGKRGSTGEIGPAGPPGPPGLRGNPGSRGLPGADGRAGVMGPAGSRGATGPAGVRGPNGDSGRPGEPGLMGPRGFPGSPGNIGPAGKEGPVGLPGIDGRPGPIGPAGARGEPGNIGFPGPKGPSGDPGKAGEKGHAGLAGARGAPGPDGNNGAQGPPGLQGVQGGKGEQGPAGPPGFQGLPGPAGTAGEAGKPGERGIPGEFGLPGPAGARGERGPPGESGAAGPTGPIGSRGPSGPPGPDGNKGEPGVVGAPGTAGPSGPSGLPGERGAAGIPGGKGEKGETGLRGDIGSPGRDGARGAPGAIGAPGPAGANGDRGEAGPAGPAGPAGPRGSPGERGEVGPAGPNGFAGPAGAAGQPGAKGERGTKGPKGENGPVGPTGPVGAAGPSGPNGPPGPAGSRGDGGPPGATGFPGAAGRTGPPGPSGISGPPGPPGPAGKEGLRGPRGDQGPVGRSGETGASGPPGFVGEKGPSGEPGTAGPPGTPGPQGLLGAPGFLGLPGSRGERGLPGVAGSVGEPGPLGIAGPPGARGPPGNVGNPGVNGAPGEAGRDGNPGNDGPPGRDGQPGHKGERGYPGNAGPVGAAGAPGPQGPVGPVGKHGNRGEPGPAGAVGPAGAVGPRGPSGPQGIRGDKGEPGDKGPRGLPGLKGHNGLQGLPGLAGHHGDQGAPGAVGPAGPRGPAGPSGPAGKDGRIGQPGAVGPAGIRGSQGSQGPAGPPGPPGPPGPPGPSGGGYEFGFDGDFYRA
In the next assay the target is Toolkit peptide II-13. Briefly: ELISA; solid-phase binding assay (SPBA), Fig. 1: Toolkit II peptides, fibrillar type I collagen or GPP10 coated at 10 μg/ml on Immulon 2 HB wells; MMP preparation or Hpx at 83 nM in TBS with 1 mg/ml BSA and 0.1% Tween-20, 1 h at 24 °C; detected with an antibody to the MMP-13 hinge region (Hpx: anti-GST), A450.
For another assay, the target named is Toolkit peptide II-17. The description is as above.
A further assay concerns the target Toolkit peptide II-21. The description is as above.
A further assay deals with Toolkit peptide II-24. The description is as above.
For a further assay, the target named is Toolkit peptide II-28. The description is as above.
The target in a further assay is Toolkit peptide II-45. The description is as above.
For another assay, the target named is Toolkit peptide II-49. The description is as above.
The target of another assay is Toolkit peptide II-50. The description is as above.
The target of another assay is Toolkit peptide II-51. The description is as above.
Another assay deals with Toolkit peptide II-52. The description is as above.
Another assay concerns the target Toolkit peptide II-53. The description is as above.
Another assay has as its target Toolkit peptide II-54. Described as above.
For the next assay, the target named is Toolkit peptide II-55. Described as above.
The target in another assay is Toolkit peptide II-56. The description is as above.
The target in assay [4] is Fibrous bovine type I collagen (bovine) (UniProt P02453). The description is as above.
Fibrous bovine type I collagen (bovine), sequence (P02453 162-1217, chain 1 of 2): as the sequence (P02453 162-1217, chain 1 of 2) above
Fibrous bovine type I collagen (bovine), sequence (P02465 80-1117, chain 2 of 2, further chain): as the sequence (P02465 80-1117, chain 2 of 2, further chain) above
The next assay addresses peptide II-44D. Briefly: solid-phase binding assay (SPBA). As to conditions: parent: est. 0.19; read off a plot.
A further assay addresses peptide II-44H. Briefly: solid-phase binding assay (SPBA). The settings on record: parent: est. 0.31; read off a plot.
Assay [5] has as its target peptide II-44J. Briefly: solid-phase binding assay (SPBA). As to conditions: parent: est. 0.26; read off a plot.

As for MMP-13 (from UniProt P45452) E204A, the response with peptide II-44A (parent: est. 0.19) was 1.1 A450; in the assay with peptide II-44B (parent: est. 0.09) it was 0.15 A450; with peptide II-44C (parent: est. 0.18), 0.87 A450; with peptide II-44E (parent: est. 0.16), 0.95 A450; with peptide II-44F (parent: est. 0.08), 0.57 A450; with peptide II-44G, 0.57 A450. In addition, the response with peptide II-44I (parent: est. 0.20) is 1.1 A450.
Turning to “MMP-13 GST-Hpx domain (domain or fragment)”, the results for the A450 with peptide II-44J [1] and with Toolkit peptide II-44 were 0.4 A450 and 0.8 A450, respectively.
What is called pKd is the negative decadic logarithm of the Kd, by convention in mol/L. As to MMP-13(E204A) (enzyme), the A450 in the assay with peptide II-44J [1] was 0.8 A450; with Toolkit peptide II-13 it was greater than 0.3 A450; with Toolkit peptide II-17 it was greater than 0.3 A450; in the assay with Toolkit peptide II-21, greater than 0.3 A450; with Toolkit peptide II-24, less than 0.2 A450; with Toolkit peptide II-28 it was less than 0.2 A450. In addition, the A450 with Toolkit peptide II-44 was greater than 1.2 A450; with Toolkit peptide II-45, greater than 0.3 A450; in the assay with Toolkit peptide II-49, greater than 0.3 A450; in the assay with Toolkit peptide II-50, greater than 0.3 A450; in the assay with Toolkit peptide II-51, greater than 0.3 A450; with Toolkit peptide II-52, greater than 0.3 A450. Also, the A450 in the assay with Toolkit peptide II-53, in the assay with Toolkit peptide II-54, with Toolkit peptide II-55 and in the assay with Toolkit peptide II-56 was greater than 0.3 A450 throughout. Besides, the pKd in [2] was 7.28; in assay [3] it was 7.59.
Turning to “proMMP-13 (from UniProt P45452 20-471) (enzyme)”, the A450 in assay [4] is greater than 1 A450.
As to proMMP-13 (from UniProt P45452) E204A, the response came out at 0.41 A450 in the assay with peptide II-44A (parent: est. 0.41); 0.08 A450 in the assay with peptide II-44B (parent: est. 0.08); 0.23 A450 with peptide II-44C (parent: est. 0.24); 0.15 A450 with peptide II-44D; 0.31 A450 with peptide II-44E (parent: est. 0.33); 0.12 A450 with peptide II-44F (parent: est. 0.09). The results for the response with peptide II-44H, with peptide II-44I (parent: est. 0.41) and with peptide II-44J [5] were 0.29 A450, 0.36 A450 and 0.29 A450, respectively.
